Assay results published in patent US20220119506A1 (NOVOBIND LIVESTOCK THERAPEUTICS, published 2022).
Positions count from the first letter of the chain named.

T1: PirA (Vibrio parahaemolyticus)
T1 construct: also called JHE-like toxin PirA-like; vp19
T1 chain: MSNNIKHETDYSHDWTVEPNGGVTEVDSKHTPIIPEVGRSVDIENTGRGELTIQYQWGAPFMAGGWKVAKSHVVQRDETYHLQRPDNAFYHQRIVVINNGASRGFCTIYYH

T2: VP28 (White spot syndrome virus)
T2 construct: Recombinant antigen; also called Coat protein VP28
T2 chain: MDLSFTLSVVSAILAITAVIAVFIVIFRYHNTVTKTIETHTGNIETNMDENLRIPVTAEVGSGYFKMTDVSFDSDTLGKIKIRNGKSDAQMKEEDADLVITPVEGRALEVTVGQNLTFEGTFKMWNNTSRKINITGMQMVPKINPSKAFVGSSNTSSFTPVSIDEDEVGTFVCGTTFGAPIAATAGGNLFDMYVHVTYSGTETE

B1: NBX0813 (VHH)
VHH: QVQLQESGGGLVQAGGSLRLSCVVSGMLFSIRNMRWYRQAPGKQRELVAQIGSSGNTDYVESVKGRFTISRDNAKNTVYLQMNSLKPEDTAVYFCNALNYWGKGTLVTVSS
notes: on phage in the phage ELISA
B2: NBX0821 (VHH)
VHH: B1 VHH with S53T, N56A, E61G, K64E, A74P, K103E
notes: on phage in the phage ELISA
B3: NBX0730 (VHH)
VHH: QVQLQESGGGLVQTGDSLRLACAASGRTFSSYPMAWYRQAPGQEREFVAGINRNGNIPVYADSVKGRFTISRDNAKNTVYLQMNNLKPEDTAVYYCAARTIYDSHYTSWGQGTQVTVSS
notes: on phage in the phage ELISA
B4: NBX0822 (VHH)
VHH: QVQLQESGGGLVRPGDSLTLSCTYSGQTFTNSGMAWFRQRPGKEREFVAAVSRSGLGRRYADSVRGRFTITRDNGKNTANLQMDSLKPEDTAVYSCAATTLDWGPRGPYRYWGQGTQVTVSS
notes: on phage in the phage ELISA
B5: NBX0824 (VHH)
VHH: QVQLQESGGGLVQAGGSLRLTCAASGRTLSSYLSSYAMGWFRQAPGKERESVATITWNGDRTLYADAVKGRFTISRDNAKNTVYLQMNSVIPEDTAVYYCAADTVGRWRSTLSVRDEYDYWGQGTQVTVAS
notes: on phage in the phage ELISA
B6: NBX0823 (VHH)
VHH: QVQLQQSGGGLVQTGGSLRLSCAASGSIFSIDFMGWYRQAPGNPREFVARIRGGNTYYADSVKGRFNISRDNAENTVYMQMNSLKSEDTAVYYCNAQITMRGGTWSTSEYWGQGTQVNVSS
notes: on phage in the phage ELISA
B7: NBX0633 (VHH)
VHH: QVQLQESGGGLVQPGGSLRLSCTASGTIFRSKSMAWYRQAPGQGRETVAHISGLGHTNYVESVKGRFTVSRDDAKNAVYLQMSSLKPEDTAVYYCNTFTAAFSWGQGTQVTVSS
notes: on phage in the phage ELISA
B8: NBX0602 (VHH)
VHH: QVQLQESGGGLVQAGDSLRLSCAASGRTFSRYAMGWFRQAPGKEREFVAAVDWSGGSTAYADSVKGRFTISRDNAKNTVYLQMNSLKPDDTAVYYCAARARDVYGRAWYVEDSSTYDYWGQGTQVTVSS
notes: on phage in the phage ELISA
B9: NBX0621 (VHH)
VHH: QVQLQESGGGLVQAGGSLRLSCAASGRTFSTYSMGWFRQVPGKEREFVAAIRWSGGSRTYADSVKGRFTISRDNTKNVVYLQMTSLKPEDTAVYYCAADRDGYSSYAHQYDYWGQGTQVTVSS
notes: on phage in the phage ELISA
B10: NBX0628 (VHH)
VHH: B9 VHH with E6Q, A14V, T31S, S33A, R52K, K65A, S105R
notes: on phage in the phage ELISA
B11: NBX0820 (VHH)
VHH: QVQLQESGGGLVQTGGSLRLSCAASGRTFSNYVIGWFRQAPGKEREFVAAVGRGINSAYHATHYSESVKDRFTTSRDNAKNTGFLQMNSLKTEDTAVYYCAVTSRWGQFDRTDFNSWGQGTQVTVSS
notes: on phage in the phage ELISA
B12: NBX0825 (VHH)
VHH: QVQLQESGGGVVETGGSLSVSCVASGRTFSAYTMAWFRQSPGKEREFVASMSRGSAAYYTDSVRGRFAISRVGDKNTVHLQMRDLKPEDTAVYYCAGGSPGSSQIATPEAYTYWGQGTQVTVSA
notes: on phage in the phage ELISA
B13: NBX0815 (VHH)
VHH: QVQLQESGGGLVQAGGSLRLSCAASGRTFSSYAMGWFRQSPGKDREFVAAVSWSGGSTYYADSLKGRFTISRDNAKNTVYLQMNSLKPEDTADYYCAAQRVMDYYRPRTESAYAYWGQGTRVTVSS
notes: on phage in the phage ELISA
B14: NBX0723 (VHH)
VHH: QVQLQESGGGLVQAGGSLRLSCAASGRTFSSYPMGWFRQAPGSEREQIAGISRSGVPGKYADSVSGRFTISRDNAKNTLYLQMNSLKPEDTAVYYCAARSIYSNNYSYWGQGTQVTVSS
notes: on phage in the phage ELISA
B15: NBX0745 (VHH)
VHH: B14 VHH with S43K, V56D, D62A, S100E
notes: on phage in the phage ELISA
B16: NBX0724 (VHH)
VHH: B14 VHH with E6Q, P57S
notes: on phage in the phage ELISA
B17: NBX0725 (VHH)
VHH: B14 VHH with E6Q, A23T, S43K, V56N, S100Q
notes: on phage in the phage ELISA
B18: NBX0722 (VHH)
VHH: B14 VHH with A23R, S43K, V56D, D62A, S100Q
notes: on phage in the phage ELISA
B19: NBX0746 (VHH)
VHH: B14 VHH with P33A, Q39R, S43K, V56N, S100Q
notes: on phage in the phage ELISA
B20: NBX0618 (VHH)
VHH: QVQLQESGGGLVQPGGSLRLSCAASGSIFSFNAMGWYRQAPGKQRELVAAITKGGSTSYADSVKGRFTISVDNAKNTVYLQMNSLTPEDTAVYYCNVKTLRSALFPGYEYWGQGTQVTVSS
notes: on phage in the phage ELISA
B21: NBX0817 (VHH)
VHH: QVQLQESGGGLVQAGGSLRLSCGASGGTNSNYAMGWFRQPPGKKREFVAALSWSGYNTHYADSVKGRFTISRPSARTVDLQMNNVKPEDTAVYYCAARLSGRTAGSRTYYAEGQYDYRGQGTQVTVSS
notes: on phage in the phage ELISA
B22: NBX0635 (VHH)
VHH: QVQLQESGGGLVQAGGSLRLSCATSGLTFSNYAMGWFRQAAGKEREFVATISWSGKSTRYADSVKGRFTISRDNAKNTVDLRMNSLKPEDTAVYYCAAEYQRLGLLRDGVADYSYWGQGTQVTVSS
notes: on phage in the phage ELISA

Columns and labels:
[1] = molecular target: T1, PirA; test: phage ELISA, antigen-coated wells
[2] = molecular target: T2, VP28; test: phage ELISA, antigen-coated wells

Binder	binding above PBS-coated wells [1]	binding above PBS-coated wells [2]
B1	≥ 50%	–
B2	≥ 50%	–
B3	–	≥ 50%
B4	≥ 50%	–
B5	≥ 50%	–
B6	≥ 50%	–
B7	≥ 50%	–
B8	≥ 50%	–
B9	≥ 50%	–
B10	≥ 50%	–
B11	≥ 50%	–
B12	≥ 50%	–
B13	≥ 50%	–
B14	–	≥ 50%
B15	–	≥ 50%
B16	–	≥ 50%
B17	–	≥ 50%
B18	–	≥ 50%
B19	–	≥ 50%
B20	≥ 50%	–
B21	≥ 50%	–
B22	≥ 50%	–
